# Laboratory results taken from patent publication US20110183861A1 (ABLYNN N V, published 2011).
# T1: human RANKL (human, UniProt O14788 140-317, limits assumed)
# T1 sequence (looked up): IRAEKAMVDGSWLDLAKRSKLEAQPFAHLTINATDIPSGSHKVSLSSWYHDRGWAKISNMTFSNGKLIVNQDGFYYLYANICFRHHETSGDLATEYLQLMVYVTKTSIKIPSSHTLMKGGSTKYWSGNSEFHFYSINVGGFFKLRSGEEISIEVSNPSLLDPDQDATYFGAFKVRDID
# Key:
# A1 domain of vWF [1] = biological target: T2, A1 domain of vWF (UniProt P04275 1261-1468, limits assumed); experiment: PLA potency assay (Biacore) on RPC fraction, second experiment
# T2 construct: domain: A1 domain; also called vWF A1 domain
# Procedure: (§1) To determine the potency (i.e. looking at affinity measurements) of the −18Da product related variant, post-peak 1 was collected during RP-HPLC separation and directly measured in the PLA potency assay. Similar to what was done for pre-peak 1, the elution fraction representing post-peak 1 was first dried using a speedvac (miVac Duo Concentrator, Genevac) and then re-solubilized in PBS. […] Three independent but slightly different experiments were performed. In a first experiment the concentration after reconstitution was determined spectrophotometrically and no Tween was added to the PBS. In a second experiment, 0.02% Tween was present in the PBS at the time of reconstitution of the dried material (to prevent loss of protein from the relatively dilute samples) and the concentration was deduced from the peak area in a re-analysis by RP-HPLC. The RPC re-analysis also confirmed the identity of the isolated material. In a third experiment, we additionally diluted the purified main peak material to about the same concentration as the post-peak variant so to eliminate as much as possible any dissimilarities between the main and the post-peak samples. […]
# A1 domain of vWF [2] = biological target: T2, A1 domain of vWF; experiment: PLA potency assay (Biacore) on RPC fraction, first experiment
# Procedure: as §1
# A1 domain of vWF [3] = biological target: T2, A1 domain of vWF; experiment: Biacore potency assay
# human RANKL [4] = biological target: T1, human RANKL; experiment: AlphaScreen competition against the human RANKL / human RANK-Fc interaction
# Procedure: (§2) Finally, streptavidin coated donor beads (20 ug/ml) were added. After 1 hour of incubation plates were read on the Envison Alphascreen reader (PerkinElmer). All experiments were performed in duplicate.
# human RANKL [5] = biological target: T1, human RANKL; experiment: AlphaScreen competition: Nanobody titrated against the interaction of human RANKL (1 nM) with biotinylated human RANK-Fc (3 nM); acceptor beads with anti-RANKL MAb BN-12, streptavidin donor beads
# Procedure: as §2
# A1 domain of vWF [6] = biological target: T2, A1 domain of vWF; experiment: SPR (BIAcore), vWF A1 domain on sensor-chip
# Procedure: (§3) The kinetic constants, kₒₙ and koff, were deduced from the obtained sensorgrams and used to calculate the equilibrium dissociation constant, KD. […] For these experiments, the samples were diluted to a 2 nM concentration. The initial binding rate was determined from the association phase of the sensorgram by linear fitting of the data points obtained between 5 and 25 seconds after the injection start and the reported value is the average of 5 independent measurements.
# A1 domain of vWF [7] = biological target: T2, A1 domain of vWF; experiment: BIAcore initial binding rate, vWF A1 domain on sensor-chip, stored sample
# Procedure: as §3
# A1 domain of vWF [8] = biological target: T2, A1 domain of vWF; experiment: SPR (Biacore), A1 domain of VWF
# A1 domain of vWF [9] = biological target: T2, A1 domain of vWF; experiment: SPR (BIAcore), immobilized vWF A1 domain; M83A mutant
# Procedure: as §3
# A1 domain of vWF [10] = biological target: T2, A1 domain of vWF; experiment: SPR (BIAcore), immobilized vWF A1 domain; M34A mutant
# Procedure: as §3
# A1 domain of vWF [11] = biological target: T2, A1 domain of vWF; experiment: SPR (BIAcore), immobilized vWF A1 domain; M78A mutant
# Procedure: as §3
# A1 domain of vWF [12] = biological target: T2, A1 domain of vWF; experiment: SPR (BIAcore), vWF A1 domain on sensor-chip; remark: listed apart in the source
# Procedure: as §3
Kd (A1 domain of vWF [6]) [nM],% activity after 4 wks at 37° C. (initial binding rate against time zero) (A1 domain of vWF [7]) [%],% activity after 8 wks at 37° C. (initial binding rate against time zero) (A1 domain of vWF [7]) [%],Binder,also measured
,,,"SEQ ID NO: 1, ALX-0081 (VHH, Produced in E. coli; also called BATCH 1; RPC main peak) EVQLVESGGGLVQPGGSLRLSCAASGRTFSYNPMGWFRQAPGKGRELVAAISRTGGSTYYPDSVEGRFTISRDNAKRMVYLQMNSLRAEDTAVYYCAAAGVRAEDGRVRTLPSEYTFWGQGTQVTVSSAAAEVQLVESGGGLVQPGGSLRLSCAASGRTFSYNPMGWFRQAPGKGRELVAAISRTGGSTYYPDSVEGRFTISRDNAKRMVYLQMNSLRAEDTAVYYCAAAGVRAEDGRVRTLPSEYTFWGQGTQVTVSS",potency relative to reference SEQ ID NO:1 (A1 domain of vWF [1]): 50%; potency relative to reference SEQ ID NO:1 (A1 domain of vWF [2]): 91.9%
,,,"SEQ ID NO: 1 RPC post-peak 1 (single norleucine mis-incorporation, -18 Da) (VHH, norleucine in place of one methionine (site not determined), -18 Da, Collected from RP-HPLC and reconstituted before the potency assay; also called -18Da product related variant) EVQLVESGGGLVQPGGSLRLSCAASGRTFSYNPMGWFRQAPGKGRELVAAISRTGGSTYYPDSVEGRFTISRDNAKRMVYLQMNSLRAEDTAVYYCAAAGVRAEDGRVRTLPSEYTFWGQGTQVTVSSAAAEVQLVESGGGLVQPGGSLRLSCAASGRTFSYNPMGWFRQAPGKGRELVAAISRTGGSTYYPDSVEGRFTISRDNAKRMVYLQMNSLRAEDTAVYYCAAAGVRAEDGRVRTLPSEYTFWGQGTQVTVSS",potency relative to reference SEQ ID NO:1 (A1 domain of vWF [1]): 81%; potency relative to reference SEQ ID NO:1 (A1 domain of vWF [2]): 51.6%
,,,"SEQ ID NO: 1 E1Q, fraction E1Q-a (cyclized pyroglutamate form) (VHH, N-terminal pyroglutamate (cyclized Q1), Fraction of the E1Q mutant from a monoS column; mass 27857 Da) QVQLVESGGGLVQPGGSLRLSCAASGRTFSYNPMGWFRQAPGKGRELVAAISRTGGSTYYPDSVEGRFTISRDNAKRMVYLQMNSLRAEDTAVYYCAAAGVRAEDGRVRTLPSEYTFWGQGTQVTVSSAAAEVQLVESGGGLVQPGGSLRLSCAASGRTFSYNPMGWFRQAPGKGRELVAAISRTGGSTYYPDSVEGRFTISRDNAKRMVYLQMNSLRAEDTAVYYCAAAGVRAEDGRVRTLPSEYTFWGQGTQVTVSS",potency relative to BATCH 1 (average) (A1 domain of vWF [3]): 105%
,,,"RANKL-1_D62E (VHH, Expressed from pAX054 in the periplasm of E. coli; not shown: C-terminal c-myc tag and (His)6 tag coded by vector pAX054) VHH: EVQLVESGGGLVQPGGSLRLSCAASGFTFSSYPMGWFRQAPGKGREFVSSITGSGGSTYYAESVKGRFTISRDNAKNTLYLQMNSLRPEDTAVYYCAAYIRPDTYLSRDYRKYDYWGQGTLVTVSS",IC50 (read off the curve) (human RANKL [4]): ~0.1 nM
,,,"RANKL-1 (VHH, Expressed from pAX054 in the periplasm of E. coli; not shown: C-terminal c-myc tag and (His)6 tag coded by vector pAX054) VHH: EVQLVESGGGLVQPGGSLRLSCAASGFTFSSYPMGWFRQAPGKGREFVSSITGSGGSTYYADSVKGRFTISRDNAKNTLYLQMNSLRPEDTAVYYCAAYIRPDTYLSRDYRKYDYWGQGTLVTVSS",IC50 (read off the curve) (human RANKL [4]): ~0.1 nM; IC50 (human RANKL [5]): 0.114 nM
1,88.4,87.4,SEQ ID NO: 2 D62A (VHH) VHH: EVQLVESGGGLVQPGGSLRLSCAASGRTFSYNPMGWFRQAPGKGRELVAAISRTGGSTYYPASVEGRFTISRDNAKRMVYLQMNSLRAEDTAVYYCAAAGVRAEDGRVRTLPSEYTFWGQGTQVTVSS,
,,,"Stab. 12A2H1; SEQ ID NO: 2 with E1D, D62E, M78T, D105Q (VHH, also called 12A2H1 SV1; 12A2h1SV1) VHH: DVQLVESGGGLVQPGGSLRLSCAASGRTFSYNPMGWFRQAPGKGRELVAAISRTGGSTYYPESVEGRFTISRDNAKRTVYLQMNSLRAEDTAVYYCAAAGVRAEQGRVRTLPSEYTFWGQGTQVTVSS",Kd (A1 domain of vWF [8]): 0.986 nM; koff (A1 domain of vWF [8]): 0.0207 s⁻¹; kon (A1 domain of vWF [8]): 2.1e+07 M⁻¹ s⁻¹
0.8,29.5,32.7,SEQ ID NO: 2 D105N (VHH) VHH: EVQLVESGGGLVQPGGSLRLSCAASGRTFSYNPMGWFRQAPGKGRELVAAISRTGGSTYYPDSVEGRFTISRDNAKRMVYLQMNSLRAEDTAVYYCAAAGVRAENGRVRTLPSEYTFWGQGTQVTVSS,
,,,SEQ ID NO: 2 M83A (VHH) VHH: EVQLVESGGGLVQPGGSLRLSCAASGRTFSYNPMGWFRQAPGKGRELVAAISRTGGSTYYPDSVEGRFTISRDNAKRMVYLQANSLRAEDTAVYYCAAAGVRAEDGRVRTLPSEYTFWGQGTQVTVSS,Kd (A1 domain of vWF [9]): 1.29 nM
,,,SEQ ID NO: 2 M34A (VHH) VHH: EVQLVESGGGLVQPGGSLRLSCAASGRTFSYNPAGWFRQAPGKGRELVAAISRTGGSTYYPDSVEGRFTISRDNAKRMVYLQMNSLRAEDTAVYYCAAAGVRAEDGRVRTLPSEYTFWGQGTQVTVSS,Kd (A1 domain of vWF [10]): 1.96 nM
3.7,93.7,94.2,SEQ ID NO: 2 D105S (VHH) VHH: EVQLVESGGGLVQPGGSLRLSCAASGRTFSYNPMGWFRQAPGKGRELVAAISRTGGSTYYPDSVEGRFTISRDNAKRMVYLQMNSLRAEDTAVYYCAAAGVRAESGRVRTLPSEYTFWGQGTQVTVSS,
7.2,101,96,SEQ ID NO: 2 D105T (VHH) VHH: EVQLVESGGGLVQPGGSLRLSCAASGRTFSYNPMGWFRQAPGKGRELVAAISRTGGSTYYPDSVEGRFTISRDNAKRMVYLQMNSLRAEDTAVYYCAAAGVRAETGRVRTLPSEYTFWGQGTQVTVSS,
1.1,97.6,90.8,SEQ ID NO: 2 D105Q (VHH) VHH: EVQLVESGGGLVQPGGSLRLSCAASGRTFSYNPMGWFRQAPGKGRELVAAISRTGGSTYYPDSVEGRFTISRDNAKRMVYLQMNSLRAEDTAVYYCAAAGVRAEQGRVRTLPSEYTFWGQGTQVTVSS,
,,,SEQ ID NO: 2 M78A (VHH) VHH: EVQLVESGGGLVQPGGSLRLSCAASGRTFSYNPMGWFRQAPGKGRELVAAISRTGGSTYYPDSVEGRFTISRDNAKRAVYLQMNSLRAEDTAVYYCAAAGVRAEDGRVRTLPSEYTFWGQGTQVTVSS,Kd (A1 domain of vWF [11]): 1.46 nM
1.2,95.5,83.8,SEQ ID NO: 2 S63G (VHH) VHH: EVQLVESGGGLVQPGGSLRLSCAASGRTFSYNPMGWFRQAPGKGRELVAAISRTGGSTYYPDGVEGRFTISRDNAKRMVYLQMNSLRAEDTAVYYCAAAGVRAEDGRVRTLPSEYTFWGQGTQVTVSS,
1.3,89.6,80.2,SEQ ID NO: 2 D62E (VHH) VHH: EVQLVESGGGLVQPGGSLRLSCAASGRTFSYNPMGWFRQAPGKGRELVAAISRTGGSTYYPESVEGRFTISRDNAKRMVYLQMNSLRAEDTAVYYCAAAGVRAEDGRVRTLPSEYTFWGQGTQVTVSS,
9.3,,98.7,SEQ ID NO: 2 D105A (VHH) VHH: EVQLVESGGGLVQPGGSLRLSCAASGRTFSYNPMGWFRQAPGKGRELVAAISRTGGSTYYPDSVEGRFTISRDNAKRMVYLQMNSLRAEDTAVYYCAAAGVRAEAGRVRTLPSEYTFWGQGTQVTVSS,fold drop in affinity against wild type SEQ ID NO: 2 (A1 domain of vWF [12]): 10 fold
4.4,,98.8,SEQ ID NO: 2 D105E (VHH) VHH: EVQLVESGGGLVQPGGSLRLSCAASGRTFSYNPMGWFRQAPGKGRELVAAISRTGGSTYYPDSVEGRFTISRDNAKRMVYLQMNSLRAEDTAVYYCAAAGVRAEEGRVRTLPSEYTFWGQGTQVTVSS,
